This note sets out measurements from patent US20240409663A1 (CONCEPT TO MEDICINE BIOTECH, published 2024).

Test [1] has as its target T1, human GPC3 on cells (human, UniProt P51654 25-554).
T1 construct: whole, on cells; over-expressed on CHOK1 cells or endogenous on HEPG2, Hep3B and Huh-7 hepatocellular carcinoma cells; the cell line is named under assay; also called GPC3-CHOK1 cells; human GPC3 over-expressed CHOK1 cells
Description: FACS, GPC3-CHOK1 cells. As for the experimental part:
(§1) Cell-based binding: FACS was used to evaluate the binding activity of 52H5D3B8, 52H5D3B8-6 # chimeric mAbs and GC33 antibody on human GPC3 over-expressed CHOK1 cells, Hep3B cells and Huh-7 cells.
(§2) Briefly, GPC3-CHOK1 cells, Hep3B cells or Huh-7 cells were firstly incubated with Fc blocking reagent at 4° C. for 15 mins. Cells were washed by FACS buffer and divided to each well with 3-fold serially diluted 52H5D3B8, 52H5D3B8-6 # chimeric mAbs or GC33 antibody starting at 30 μg/mL at 4° C. for 60 mins. Cells were washed by FACS buffer and fixed with 2% PFA at RT for 15 mins. […] Samples were washed twice with FACS buffer.
For orientation: In flow cytometry, cells or beads pass a laser one at a time.

In test [2] the target is T1, human GPC3 on cells. Description: FACS, GPC3-CHOK1 cells. As for the experimental part: (§3) To evaluate the antigen binding property, the humanized antibodies were analyzed for their binding to human GPC3 over-expressed CHOK1 cells and Huh-7 cells by FACS. Briefly, GPC3-CHOK1 cells and Huh-7 cells were firstly incubated with Fc blocking reagent at 4° C. for 15 mins. Cells were washed by FACS buffer and divided to each well with 4-fold serially diluted humanized antibodies starting at 10 μg/mL at 4° C. for 60 mins. Cells were washed by FACS buffer and fixed with 2% PFA at RT for 15 mins. […] As different plates might affect the EC50 of 52H5D3B8-VH+VL, the 12 humanized antibodies were separated into two plates.
This is another data set of the same source.

The target of test [3] is T1, human GPC3 on cells. Kind of test: FACS, Hep3B cells. As for the experimental part:
as §1, §2

For test [4], the target named is T1, human GPC3 on cells. Description: FACS, Huh-7 cells. As for the experimental part: (§4) Cell-based binding: FACS was used to evaluate the binding activity of 52H5D3B8 chimeric mAbs with comparison to a known GPC3 antibody GC33 (Chugai Pharmaceutical) on human GPC3 over-expressed CHOK1 cells, HEPG2 cells, Hep3B cells and Huh-7 cells.
(§5) Briefly, GPC3-CHOK1 cells, HEPG2 cells, Hep3B cells or Huh-7 cells were firstly incubated with Fc blocking reagent at 4° C. for 15 mins. Cells were washed by FACS buffer and divided to each well with 3-fold serially diluted 52H5D3B8 chimeric mAbs or GC33 mAb starting at 30 μg/mL at 4° C. for 60 mins. Cells were washed by FACS buffer and fixed with 2% PFA at RT for 15 mins. […] Samples were washed twice with FACS buffer.

In test [5] the target is T1, human GPC3 on cells. Description: FACS, Huh-7 cells. As for the experimental part: as §3
This is another data set of the same source.

The target in test [6] is T2, human GPC3-his tag protein (human, UniProt P51654 25-559, limits assumed).
T2 construct: recombinant soluble antigen used as analyte in all Biacore runs; also called recombinant GPC3 protein; rhGPC3-His; not shown: His tag
Kind of test: SPR Biacore 8K, mAb captured, affinity ranking. As for the experimental part:
To evaluate antigen binding activity, the chimeric antibody's affinity was measured by Biacore 8K. Two concentrations with most close affinity to the chimeric antibody's affinity were chosen for the 12 humanized antibodies' affinity detection. Human GPC3-his tag protein was injected over captured antibody for 3 mins at a flow rate of 30 μl/min. The antigen was allowed to dissociate for 720 s.
For orientation: SPR reads the build-up and loss of mass on a sensor chip optically.

The target in test [7] is T3, human GPC3 protein (ELISA coat) (human, UniProt P51654 25-559, limits assumed).
T3 construct: protein coated on plates in the cross species ELISA
Description: ELISA, coated human GPC3. As for the experimental part:
(§6) ELISA testing was carried out to evaluate the binding of chimeric antibodies to human, mouse and cynomolgus GPC3, respectively.
(§7) Briefly, microtiter plates were coated with human, mouse and cynomolgus GPC3 proteins at 1 μg/ml in PBS, 100 μl/well at 4° C. overnight, then blocked with 150 μl/well of 1% BSA. Three-fold dilutions of chimeric antibodies starting from 9 μg/ml were added to each well and incubated for 1 hour at 37° C. The plates were washed with PBS/Tween and then incubate with mouse-anti-human IgG Fc antibody conjugated with Horse Radish Peroxidase (HRP) for 30 mins at 37° C. After washing, the plates were developed with TMB substrate and analyzed by spectrophotometer at OD 450 nm. The 52H5D3B8 antibody bound to human, cynomolgus GPC3 and mouse GPC3 (FIG. 3 and Table 4).

In test [8] the target is T1, human GPC3 on cells. Description: FACS, Hep3B cells. As for the experimental part: as §4, §5
This is another data set of the same source.

Test [9] addresses T1, human GPC3 on cells. Kind of test: FACS, GPC3-CHOK1 cells. As for the experimental part: Cell-based binding: FACS was used to evaluate the binding activity of chimeric mAbs (18C1D9, 52H5D3B8, 163E7D12, 172B4E9, 152E9F7 and 171F9C5) with comparison to a known GPC3 antibody GC33 (Chugai Pharmaceutical) on human GPC3 over-expressed CHOK1 cells.
Briefly, GPC3-CHOK1 cells were washed by FACS buffer and divided to each well with 3-fold serially diluted chimeric mAbs or GC33 mAb starting at 5 μg/mL at 4° C. for 40 mins. […] Samples were washed twice with FACS buffer.
This is another data set of the same source.

The target in test [10] is T1, human GPC3 on cells. Kind of test: FACS, Huh-7 cells. As for the experimental part: as §3
This is another data set of the same source.

For the next test, the target named is T4, mouse GPC3 protein (mouse, UniProt Q8CFZ4 25-558, limits assumed).
T4 construct: protein coated on plates in the cross species ELISA
T4 sequence (Q8CFZ4 25-558 limits assumed): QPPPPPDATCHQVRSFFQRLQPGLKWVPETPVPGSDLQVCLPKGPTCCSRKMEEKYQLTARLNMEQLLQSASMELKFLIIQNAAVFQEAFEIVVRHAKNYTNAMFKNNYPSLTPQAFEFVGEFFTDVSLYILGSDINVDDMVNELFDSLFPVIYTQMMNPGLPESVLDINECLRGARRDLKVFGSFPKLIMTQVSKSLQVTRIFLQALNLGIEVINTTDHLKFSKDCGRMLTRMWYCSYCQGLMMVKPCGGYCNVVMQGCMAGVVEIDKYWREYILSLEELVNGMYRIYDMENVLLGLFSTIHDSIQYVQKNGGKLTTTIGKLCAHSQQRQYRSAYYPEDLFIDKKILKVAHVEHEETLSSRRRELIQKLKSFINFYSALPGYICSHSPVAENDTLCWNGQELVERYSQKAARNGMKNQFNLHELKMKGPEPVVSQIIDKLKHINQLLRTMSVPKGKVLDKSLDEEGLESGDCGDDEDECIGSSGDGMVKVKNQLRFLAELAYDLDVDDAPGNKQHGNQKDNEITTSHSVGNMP
Description: ELISA, coated mouse GPC3. As for the experimental part:
as §6, §7
A general note: An ELISA detects its analyte on a solid surface through an enzyme-linked reagent.

Test [11] concerns the target T1, human GPC3 on cells. Kind of test: FACS, GPC3-CHOK1 cells. As for the experimental part:
as §4, §5
The source holds these as a separate data set.

The target in test [12] is T1, human GPC3 on cells. Description: FACS, HEPG2 cells. As for the experimental part:
as §4, §5

Test [13] has as its target T1, human GPC3 on cells. Description: FACS, GPC3-CHOK1 cells. As for the experimental part:
as §3
The source holds these as a separate data set.

For a further test, the target named is T5, cynomolgus GPC3 protein (cynomolgus, UniProt A0A2K5VK50 24-553, The natural protein carries heparan sulfate chains and may be cleaved by furin between the alpha (24-357) and beta (358-553) subunits, which stay disulfide-linked. It is written here as one …).
T5 construct: protein coated on plates in the cross species ELISA
Description: ELISA, coated cynomolgus GPC3. As for the experimental part: as §6, §7

B1: 52H5D3B8 chimeric mAb (antibody, V domains shown)
VH: QVQLQQSGAELVRPGASVKLSCKALGYTFTDYEMHWVKQTPVHGLEWIGAIHPGSGGTAYNQKFKGKATLTADKFSSTGYMELSSLTSEDSAVYYCTRFYSYAYWGQGTLVTVSA
VL: DVVMTQTPLSLPVSLGDQASISCRSSQSLVHSNGNTYLQWYLQKPGQSPKLLIYKVSNRFSGVPDRFSGSGSGTDFILKISRVEAEDLGVYFCSQSIHVPYTFGGGTKLEIK
notes: also called 52H5D3B8-VH+VL; chimeric 52H5D3B8 mAb
As usually defined, the EC50 is the concentration that produces a half-maximal response. A higher EC50 goes with a need for much substance. The Kd is the constant that tells how readily two partners part at equilibrium. Low readings indicate tighter binding, high ones weaker binding. By koff is commonly meant a measure of how fast the partners let go of each other. Higher therefore signals fast dissociation. Broadly, the kon is the second-order rate constant of association. The low end stands for slower complex formation, the high end for faster complex formation. Take B1: the EC50 stood at 0.07 µg/mL with human GPC3 on cells [1]; 0.0479 µg/mL with human GPC3 on cells [2]; 0.217 µg/mL with human GPC3 on cells [3]; 0.0986 µg/mL with human GPC3 on cells [4]; 0.0469 µg/mL in the test with human GPC3 on cells [5]; 0.017 µg/mL in [7]. The EC50 with human GPC3 on cells [8] worked out at 0.192 µg/mL; in the test with human GPC3 on cells [9], 0.0909 µg/mL; with human GPC3 on cells [10], 0.0563 µg/mL; with mouse GPC3 protein, 4.95 µg/mL; with human GPC3 on cells [11] it was 0.0922 µg/mL; in the test with human GPC3 on cells [12], 0.111 µg/mL. Besides, the EC50 with human GPC3 on cells [13] turned out to be 0.0477 µg/mL; in the test with cynomolgus GPC3 protein, 0.0152 µg/mL. Further, in test [6], the Kd turned out to be 1.41 nM. The koff in [6] was found to be 0.00049 s⁻¹. In addition, the kon in [6] was 347000 M⁻¹ s⁻¹.
